In publication PMC2888438:

Molecular target: TRIM25 (UniProt Q14258)
Experiment: co-immunoprecipitation, Western blot
Settings: reference: wild type 2CARD; sites S8

binding against the reference: stronger
Substance: RIG-I 2CARD region (CARD1 and CARD2) (from UniProt O95786) S8A
